{"source": "patent US6982170", "key": {"[1]": {"tested_on": "human wild type FGF-1 (fibroblast growth factor-1)"}, "[2]": {"tested_on": "thrombin resistant mutant FGF-1R136K"}, "[3]": {"target": "human wild type FGF-1 (fibroblast growth factor-1) (human) (UniProt P05230)", "experiment": "cell-based or functional assay"}}}
{"substance": "thrombin", "values": [{"measurement": "degradation of FGF-1 on Western blot (bands at 17 kD and 14 kD), no heparin", "setting": "[1]", "result": "wild-type FGF-1 was degraded by even the lowest concentration of thrombin used (0.5 U/ml)"}, {"measurement": "degradation of FGF-1 on Western blot", "setting": "[2]", "result": "FGF-1R136K, even in the absence of heparin, was relatively resistant to thrombin degradation"}, {"measurement": "size of the cleavage band on Western blot", "setting": "[2]", "result": "the band detected upon treatment of FGF-1R136K mutant is slightly larger than the degradation band from wild type FGF-1"}]}
{"substance": "thrombin (enzyme)", "values": [{"measurement": "BAEC growth (cell number after 3 days) with thrombin-pretreated growth factor", "setting": "[3]", "result": "< 1", "unit": "U/ml"}]}
